How the values were obtained:
Experiment in all cases: FRET or BRET; FRET/FLIM: EGFP fluorescence lifetime of EKAR constructs (WW domain and peptide on one chain) in fixed, mounted COS cells; serum in the medium
Conditions in all cases: partners not purified
[1] = biological target: T1, PSD-95 S35 peptide of the EKAR construct (UniProt P31016 30-40)
T1 construct: PSD-95 peptide around S35 put in place of the CDC25C peptide; On one chain with m14 (see its note); also called EKAR S35; source: COS cells, transfected, in cells
T1 peptide (looked up): PNQANSPPVIV

[2] = biological target: T2, PSD-95 S25 peptide of the EKAR construct (UniProt P31016 20-30)
T2 construct: PSD-95 peptide around S25 put in place of the CDC25C peptide; On one chain with m14 (see its note); also called EKAR S25; source: COS cells, transfected, in cells
T2 peptide (looked up): PPLEHSPAHLP

[3] = biological target: T3, PSD-95 T19 peptide of the EKAR construct (UniProt P31016 14-24)
T3 construct: PSD-95 peptide around T19 put in place of the CDC25C peptide; 11 residues, the text says 10-mer; On one chain with m14 (see its note); also called EKAR T19; EKAR_(cyto)T19; source: COS cells, transfected, in cells
T3 peptide (looked up): YQDEDTPPLEH

B1: Pin1 WW domain of the EKAR construct (domain or fragment, UniProt Q13526 5-39, looked up)
chain: EKLPPGWEKRMSRSSGRVYYFNHITNASQWERPSG
notes: Pin1 WW domain as in the EKAR construct (Harvey et al., 2008); source: COS cells, transfected, in cells
EGFP fluorescence lifetime [1]: 1.81 ns | EGFP fluorescence lifetime [2]: 1.69 ns | EGFP fluorescence lifetime [3]: 1.72 ns
